Measured values from patent publication US20020161201A1.
pKd: −log10 of the molar value.

Molecular target: bovine submaxillary mucin type I (bovine)
Experiment: competition ELISA with biotinylated CC49 SCA, mucin

Row | Substance | pKd
1 | non-PEGylated CC49 SCA (Native-CC49) (scFv) | 8.44
2 | biotinylated CC49 SCA (scFv) | 8.21
